Consider 3 variants from IntAct's records for PubMed 18323775.

B1: Zinc finger protein-like 1 (Mus musculus), Q9DB43 (parent)
chain: MGLCKCPKRKVTNLFCFEHRVNVCEHCLVANHAKCIVQSYLQWLQDSDYNPNCRLCNTPLASRETTRLVCYDLFHWACINERAAQLPRNTAPAGYQCPSCNGPIFPPANLAGPVASALREKLATVNWARAGLGLPLIDEVISPEPEPLNSSDFSDWSSFNATTTSVQEERASTPSAPAFYSQAPRPPPSPSRPEQHTVIHMGSTEALAHAPRKVYDTRDDDRTAGIHGDCDDDKYRRRPALGWLAQLLRSRAGSRKRPLTLLQRAGLLLLLGLLGFLALLALMSRLGRAAADSDPNLDPLMNPHIRVGPS
partner: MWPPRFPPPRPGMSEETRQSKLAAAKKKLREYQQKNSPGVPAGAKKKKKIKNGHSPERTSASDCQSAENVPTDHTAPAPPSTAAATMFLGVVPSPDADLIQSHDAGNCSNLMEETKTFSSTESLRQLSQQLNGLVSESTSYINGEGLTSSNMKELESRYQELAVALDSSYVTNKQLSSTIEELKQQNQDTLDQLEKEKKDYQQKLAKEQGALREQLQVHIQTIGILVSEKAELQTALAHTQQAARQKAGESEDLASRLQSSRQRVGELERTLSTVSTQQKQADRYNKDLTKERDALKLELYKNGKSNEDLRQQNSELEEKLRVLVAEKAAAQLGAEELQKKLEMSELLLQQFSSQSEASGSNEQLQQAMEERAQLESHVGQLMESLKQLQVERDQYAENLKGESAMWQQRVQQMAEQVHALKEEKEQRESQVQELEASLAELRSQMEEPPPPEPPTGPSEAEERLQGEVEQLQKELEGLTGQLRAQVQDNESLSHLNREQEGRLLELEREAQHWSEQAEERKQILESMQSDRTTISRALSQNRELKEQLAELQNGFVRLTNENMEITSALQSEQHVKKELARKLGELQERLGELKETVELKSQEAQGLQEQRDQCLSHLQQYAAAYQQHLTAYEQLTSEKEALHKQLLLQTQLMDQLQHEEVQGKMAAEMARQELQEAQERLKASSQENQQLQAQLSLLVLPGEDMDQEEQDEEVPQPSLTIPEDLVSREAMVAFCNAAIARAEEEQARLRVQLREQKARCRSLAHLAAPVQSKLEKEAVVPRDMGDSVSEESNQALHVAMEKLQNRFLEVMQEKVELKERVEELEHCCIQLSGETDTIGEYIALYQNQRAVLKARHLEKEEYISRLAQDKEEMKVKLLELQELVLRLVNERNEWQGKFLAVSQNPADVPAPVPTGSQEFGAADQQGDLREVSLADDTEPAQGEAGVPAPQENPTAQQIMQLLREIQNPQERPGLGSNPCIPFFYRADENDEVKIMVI

The variants in the first assay derive from B1. Particulars: with goga2_rat Golga2, Q62839.
For the variant MGLCKCPKRKVTNLFCFEHRVNVCEHALVANHAKCIVQSYLQWLQDSDYNPNCRLCNTPLASRETTRLVCYDLFHWACINERAAQLPRNTAPAGYQCPSCNGPIFPPANLAGPVASALREKLATVNWARAGLGLPLIDEVISPEPEPLNSSDFSDWSSFNATTTSVQEERASTPSAPAFYSQAPRPPPSPSRPEQHTVIHMGSTEALAHAPRKVYDTRDDDRTAGIHGDCDDDKYRRRPALGWLAQLLRSRAGSRKRPLTLLQRAGLLLLLGLLGFLALLALMSRLGRAAADSDPNLDPLMNPHIRVGPS [C27A], the “effect of a mutation on the interaction” value is on record as “decreasing interaction”.

The next assay covers variants of B1. Particulars: with goga2_rat Golga2, Q62839. The source holds these as a separate data set.
As for MGLCKCPKRKVTNLFCFEHRVNVCEHALVANHAKCIVQSYLQWLQDSDYNPNCRLCNTPLASRETTRLVCYDLFHWACINERAAQLPRNTAPAGYQCPSCNGPIFPPANLAGPVASALREKLATVNWARAGLGLPLIDEVISPEPEPLNSSDFSDWSSFNATTTSVQEERASTPSAPAFYSQAPRPPPSPSRPEQHTVIHMGSTEALAHAPRKVYDTRDDDRTAGIHGDCDDDKYRRRPALGWLAQLLRSRAGSRKRPLTLLQRAGLLLLLGLLGFLALLALMSRLGRAAADSDPNLDPLMNPHIRVGPS [C27A], the “effect of a mutation on the interaction” value is recorded as “disrupting interaction”.

The next assay covers variants of B1. Particulars: with goga2_rat Golga2, Q62839. This is another data set of the same source.
On to MGLCKAPKRKVTNLFCFEHRVNVCEHCLVANHAKCIVQSYLQWLQDSDYNPNCRLCNTPLASRETTRLVCYDLFHWACINERAAQLPRNTAPAGYQCPSCNGPIFPPANLAGPVASALREKLATVNWARAGLGLPLIDEVISPEPEPLNSSDFSDWSSFNATTTSVQEERASTPSAPAFYSQAPRPPPSPSRPEQHTVIHMGSTEALAHAPRKVYDTRDDDRTAGIHGDCDDDKYRRRPALGWLAQLLRSRAGSRKRPLTLLQRAGLLLLLGLLGFLALLALMSRLGRAAADSDPNLDPLMNPHIRVGPS [C6A], for which the “effect of a mutation on the interaction” value is reported as “disrupting interaction”.

Variants of B1 are the subject of a further assay. Particulars: with goga2_rat Golga2, Q62839. This is another data set of the same source.
As for MGLCKCPKRKVTNLFCFEHRVNVCEHCLVANHAKCIVQSYLQWLQDSDYNPNARLCNTPLASRETTRLVCYDLFHWACINERAAQLPRNTAPAGYQCPSCNGPIFPPANLAGPVASALREKLATVNWARAGLGLPLIDEVISPEPEPLNSSDFSDWSSFNATTTSVQEERASTPSAPAFYSQAPRPPPSPSRPEQHTVIHMGSTEALAHAPRKVYDTRDDDRTAGIHGDCDDDKYRRRPALGWLAQLLRSRAGSRKRPLTLLQRAGLLLLLGLLGFLALLALMSRLGRAAADSDPNLDPLMNPHIRVGPS [C53A], the “effect of a mutation on the interaction” value is “decreasing interaction”.
